# Test results from the nanobody polyreactivity screen of Harvey et al. (2022).
# Assay: yeast display, Sf9 membrane polyspecificity reagent, FACS + sequencing; frameworks hold sequencing errors
# Method in brief: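 A synthetic nanobody library was expressed on Saccharomyces cerevisiae BJ5465 by galactose induction for 36–48 hours. The library was stained for 1 hour at 4 °C with 10% biotinylated, detergent-solubilized Sf9 membrane reagent and enriched with streptavidin microbeads before FACS. Low and high (top ~1%) gates were set on anti-HA fluorescence for expression and streptavidin fluorescence for reagent binding, and each polyreactivity label reflects the gate of origin.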
row,Sequence,polyreactivity (PSR sort gate)
1,QVQVVESGGGLVQAGGSLRLSCAASGSNFQRYTMGLYRQAPGKDRELVAAITGRGGSTYYADSVKGRFTISRDNAKNTVYLEMNSLKPEDTAVYYCAAGAFRRYKSDYYYWGQGTQVTVSS,low polyreactivity
2,QVQVVESGGGLVQAGGSLRLSCAASGSTFKKYAMGWYRQAPGKERELVAAISWSGGSTYYADSVKGRFTISRDNAKNTVYLQMNSLKPEDTAVYYCAAYPYTYYLDRYEYWGQGTQVTVSS,high polyreactivity
3,QVQVVESGGGLVQAGGSLRLSCAASGSTFQYYAMGWYRQAPGKEREFFAAITWSGGRTYYADSVKGRFTISRDNAKNTVYLQMKSLKPEDTAVYYCAADIDGVWIPYEYDYWGQGTQGTVSS,low polyreactivity
4,QVQVVESGGGLVQAGGSLRLSCAASGSTFYINAIGWYRQAPGNERELVAAIYFRGGSTYYADSVKGRFPISRDNAKNTVYVKMNSLKPEVTAVYYCAAYYYFFRRYSWRLSCDYWGQGTQVTVSS,low polyreactivity
5,QVQVVESGGGLVQAGGSLRLSCAPSGRIFLGNRMSWYRHAPGKERELVAAISKSGGTTYYADSVKGRFTISRDNAKNTVYLQMNSLKPEDTAVYYCAASRPRPPSSRRMDYWGQGTQVTVSS,high polyreactivity
6,QVQVVESGGGLVQAGGSLRLTCAASGRTFYKNAMGWYRQAAGKERELFAAITTRGGTTFYADSVKGRFTISRDNAKNTDYLQLNSMIPEDTAVDYCAKDSYTRPRGYDFWGQGTHVTVSS,high polyreactivity
7,QVQVVQSGGGLVQAGGSLRLSCAASGSTFPGNAMGWNRQAPGKERELVASIRSSAASTYYADSVKGRFTISRDNAKNTVYLHMNSLKPEETAVYYWSVRSYRRFTNLSYRYDYWGQGTQVSVSS,high polyreactivity
8,QVRLVESGGGLFQAGGSLRISCAASGRIFNTYAMGWYRQAPGKERELVAAIRWSSGSTFYADSVKGRFTISRDYAKNTVYLQMNSLKPEDTAVYYCAADNWAVNAYYGYIYDYWGQGTQVTVSS,low polyreactivity
9,QVRLVESGGGLVQAGGSLRLTCAASGSTFTTYALGWYRQAPGKERELVAAISSGGDTKYADSVKGRFTISRDNAKNTIYLQMNSLIPEDTAVYYCAKRRYYRYYYWGQGTQVTVSS,high polyreactivity
10,QVTLVESGGGLVQAGGSLRLSCAASGFTFYIYAMGWYRQAPGKERELVAAISSSGTRTYYADSVKGRFTISRDHAKNTVYLQMNSLKPEDTAVYYCAAALGWYSAFGYWGQGTQVTVSS,high polyreactivity
11,QVWLQESGGGRVQACGSLRLSCAASGTIARDIFMGWYRQAPGKEREFVATIAQGGITNYADSVKGRFTISRDNAKNTVYLQMNSVKPGDTAVYYCAARDGNCYWFYYWGQGTQVTVSS,high polyreactivity
12,QVWLQESRGGLVQASGSLRLSCAASGTISRDIFMGWYRQAPGKEREFVATIAQGGITNYADSVKGRFTISRDNAKNTVYLLMISVKPGDTEVYYCAARDGNCYWFYYWGQGTQVTVSS,high polyreactivity
13,QYQLEDSGGGVVQAGCSLRLSCAASGRTFAYYAMGWYRQAPGKERELVAAISSSGGRTYYADSVKGRFTISRDNAKKTVYLQMNSLIPEDTAVYYCAATSTSGVLYDYWGQGTQVTVSS,high polyreactivity
14,QYQLVESGGGLVQAGGSLRLSCAASGRTFYYNAMGWYRQAPGKETELVASITITDSTNYSDSVKGRFTISRDNANNTVYLQMNSLKPEDTAVYYCAKRGLGTSFYLSDYWGQGTQVTVSS,low polyreactivity
15,RDQHVESGGGLVQAGGSLRLSCAASGRTFVPYAMGWYRQAPGKERELVAAISSGGDTNYADSVKGRFTISRDNAKNTVYLQMNSLKPEDTAVYYFAKDLTQIYYGDDYWGQGTQVTVSS,low polyreactivity
16,RVQLQESGGGLVQAGGSLRLICAASGTNFIRGDMGWYRQAPGKEREFVATIDNGSNTYYADSEKGRFTISRDNAKNAVYLQMNCLKPGDTAVYYCVVDYQLSGRLRYWGQGTQVTLSS,low polyreactivity
17,RVQLQESGGGLVQEGGSLRLSCAPSSTISRDFYMGWYRQAPGKELEFVASITYGASTNYADSVKGRVTISRDNANNTVYLQMNSLKPEDTAVYYSNAKQQPYGGTDSDYWGQGTQVSVSS,low polyreactivity
18,RVQLVESGGGLVQAGGSLRFSCAASGRIFPNNAMGWSSQAPGKARELVAAISRTGGSTYYADSVKGRFTISRDNAKNTVYLQMNSLKPEDTAVYYCAASHARWSPYYSRYYYWGQGTQVTGSS,high polyreactivity
19,RVQLVESGGGLVQAGGSLRLSCAASGRIFAQYPMGWYRKAPRKERELLAAITTTGRTYYADSVKGRFTISRDNAKNTVYLQMNSLKPEDTAVSYCAVGYHAPNVSTSDPRYDYWGQGTQVTVSS,low polyreactivity
